Results as given in patent US20230279115A1 (MABWELL SHANGHAI BIOSCIENCE, published 2023).

What was measured:
[1] = target: T1, human PD-L1 recombinant protein (human, UniProt Q9NZQ7 19-238); assay: BLI (method per paragraph 89); target not given, taken as human PD-L1 recombinant protein
T1 construct: also called recombinant PD-L1 protein; recombinant PD-L1

[2] = target: T1, human PD-L1 recombinant protein; assay: BLI, human PD-L1 recombinant protein
PD-L1-mFc = target: T2, PD-L1-mFc (human, UniProt Q9NZQ7 19-238); assay: blocking ELISA: PD-1-hFc coated at 0.5 µg/mL, 0.5 µg/mL PD-L1-mFc co-incubated with the titrated binder (50 nM, 1.5-fold, 10 points), detection with HRP-anti-mouse Fc; blocked partner PD-1-hFc
T2 construct: range 19-238; not shown: mouse Fc (mFc)
T2 sequence (Q9NZQ7 19-238 limits assumed): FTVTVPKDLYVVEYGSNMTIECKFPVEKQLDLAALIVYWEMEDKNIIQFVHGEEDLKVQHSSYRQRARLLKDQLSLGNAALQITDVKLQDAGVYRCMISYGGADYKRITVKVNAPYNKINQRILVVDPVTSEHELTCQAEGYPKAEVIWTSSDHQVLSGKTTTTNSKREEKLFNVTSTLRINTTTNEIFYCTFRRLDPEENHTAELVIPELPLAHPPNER
Description: Human PD-1-hFc (PD-1 Sequence No. NP_005009.2, 21aa-167aa) was diluted with PBS to 0.5 µg/mL, coated on an ELISA plate overnight at 4° C. Then the plate was blocked with 5% BSA for 60 min at 37° C. in a thermostatic incubator. Gradient dilutions of hzF2 and control antibody KN035, and an isotype control NC-hIgG1 (initial working concentration of 50 nM, 1.5-fold dilution to 10 concentration gradients), were added, then PD-L1-mFc (PD-L1 Sequence No. NP_054862.1, 19aa-238aa) was added at a working concentration of 0.5 µg/mL, co-incubated and reacted in a thermostatic incubator at 37° C. for 60 min. The plate was washed 4 times with PBST; then added 1:5000 diluted HRP-anti-mouse Fc (Cat.:115-035-071, Jackson Immuno Research) thereto, reacted for 45 min, and added TMB (Beijing Taitianhe Biology, Cat.: ME142) substrate to develop color for 15 min. After adding 2 M HCl to stop the reaction, the plate was read and recorded about the absorbance value of A450nm-630nm of the well plate by a reader taking 630 nm as the reference wavelength, and 450 nm as the detection wavelength.

[3] = target: T3, monkey PD-L1 recombinant protein (monkey); assay: BLI (Octet QKe), antibody captured on AHC probe, antigen 60 nM
T3 construct: also called recombinant monkey PD-L1
Description: (§1) The Octet QKe system instrument from Fortebio Company was used to determine whether chF2 could bind to recombinant monkey PD-L1 and recombinant murine PD-L1 by using the capture antibody (AHC) biological probe of anti-human antibody Fc segment to capture the Fc segment of the antibody. During the measurement, chF2 was diluted to 4 µg/mL with PBS buffer and flowed over the surface of AHC probe (PALL, Cat.: 18-0015) for 120 s. The monkey PD-L1 recombinant protein and the murine PD-L1 recombinant protein were used as mobile phases to interact with the antibodies captured on the surface of the chip. The PD-L1 recombinant protein concentration was 60 nM. The binding time of each antigen was 300 s, and the final dissociation time was 300 s.

[4] = target: T1, human PD-L1 recombinant protein; assay: BLI (Octet QKe), antibody captured on AHC probe, PD-L1 60 nM
Description: Using the Octet QKe system instrument from Fortebio Company, the ability of chF2 to bind corresponding recombinant antigen was determined by using the capture antibody (AHC) biological probe against the Fc fragment of the human antibody to capture the Fc fragment of the antibody. During the measurement, chF2 was diluted with PBS buffer to 4 µg/mL, and flowed over the surface of AHC probe (Cat.: 18-0015, PALL) for 120 s. A human PD-L1 recombinant protein was used as the mobile phase to interact with the antibody captured on the chip surface. The recombinant PD-L1 protein concentration was 60 nM. The binding time for each antigen was 300 s, and the final dissociation time was 300 s.

[5] = target: T4, human PD-L1 expressed on the cell surface (human, UniProt Q9NZQ7 19-290); assay: flow cytometry on CHO-PD-L1-CD3L cells, FITC anti-human Fc
T4 construct: whole, on cells; also called CHO-PD-L1-CD3L cells; CHO-PD-L1
T4 sequence (Q9NZQ7 19-290): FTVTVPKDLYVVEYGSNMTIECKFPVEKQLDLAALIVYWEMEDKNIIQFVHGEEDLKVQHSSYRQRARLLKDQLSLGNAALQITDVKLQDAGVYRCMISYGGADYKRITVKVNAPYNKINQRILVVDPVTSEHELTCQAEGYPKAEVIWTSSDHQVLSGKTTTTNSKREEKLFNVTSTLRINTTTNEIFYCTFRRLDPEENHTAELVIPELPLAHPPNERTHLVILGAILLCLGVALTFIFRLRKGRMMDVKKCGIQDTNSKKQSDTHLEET
Description: Cells (CHO-PD-L1-CD3L cells) were collected after centrifugation, divided into 5×10⁵ cells/sample/100 µL. Gradient diluted single variable domain antibody was added to the cells at a final concentration of 66 nM as the highest concentration, 3-fold serial dilution to make 10 gradients; then incubated on ice for 2h. The cells were washed twice with ice-cold PBS (containing 0.05% Tween). FITC-labeled anti-human Fc secondary antibody (Cat.: F9512, Sigma) was added, and incubated on ice for 1h. The cells were washed twice with ice-cold PBS (containing 0.05% Tween), resuspended in 200 µL of Flow Cytometry Buffer, and the mean fluorescence intensity (MFI) of the cells was detected by flow cytometer (Model B49007AD, SNAW31211, BECKMAN COULTER).

[6] = target: T4, human PD-L1 expressed on the cell …; assay: cell-based or functional assay
[7] = target: T5, murine PD-L1 recombinant protein (murine, UniProt Q9EP73 19-238, limits assumed); assay: BLI (Octet QKe), antibody captured on AHC probe, antigen as mobile phase
T5 construct: also called recombinant murine PD-L1
T5 sequence (Q9EP73 19-238 limits assumed): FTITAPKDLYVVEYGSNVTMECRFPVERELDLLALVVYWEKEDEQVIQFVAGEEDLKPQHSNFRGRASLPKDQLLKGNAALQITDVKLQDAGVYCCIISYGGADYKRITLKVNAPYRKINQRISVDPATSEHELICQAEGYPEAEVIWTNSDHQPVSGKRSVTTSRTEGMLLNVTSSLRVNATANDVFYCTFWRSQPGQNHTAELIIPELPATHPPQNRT
Description: as §1

T1 sequence (Q9NZQ7 19-238 limits assumed): as the sequence (Q9NZQ7 19-238 limits assumed) above

| Kd [1] | Kd [2] | koff [2] | kon [2] | Binder | further results |
| --- | --- | --- | --- | --- | --- |
| 1.34 nM | 1.34 nM | 0.000434 s⁻¹ | 324000 M⁻¹ s⁻¹ | hzF2-m9 (VHH, also called humanized single variable domain antibody hzF2-m9) VHH: EVQLVESGGGLVQPGGSLRLSCAASRDSDEGASCMGWFRQAPGKEREGVAIIFNAGERTDYGDSVKGRFTISRDNAKNTLYLQMNSLRAEDTAVYYCATVWCGSWVARSWGQGTLVTVSS |  |
| 9.36 nM | 9.36 nM | 0.0065 s⁻¹ | 695000 M⁻¹ s⁻¹ | hzF2-m4 (VHH, The parent hzF2 is a VHH-human IgG1 Fc fusion; also called humanized single variable domain antibody hzF2-m4) VHH: EVQLVESGGGLVQPGGSLRLSCAASRDSNDGASCMGWFRQAPGKGLEGVAIIFNAGERTDYGDSVKGRFTISRDNAKNTLYLQMNSLRAEDTAVYYCATVWCGSWVARSWGQGTLVTVSS |  |
| 3.24 nM |  |  |  | hzF2-m11 (VHH, Framework 2 is KEREG; also called humanized single variable domain antibody hzF2-m11) VHH: EVQLVESGGGLVQPGGSLRLSCAASRDSDDGASCMGWFRQAPGKEREGVAIIFNAGERTDYGDSVKGRFTISRDNAKNTLYLQMNSLRAEDTAVYYCATVYCGSYVARSWGQGTLVTVSS |  |
| 4.31 nM |  |  |  | hzF2-m10 (VHH, Framework 2 is KEREG; also called humanized single variable domain antibody hzF2-m10) VHH: EVQLVESGGGLVQPGGSLRLSCAASRDSDDGASCMGWFRQAPGKEREGVAIIFNAGERTDYGDSVKGRFTISRDNAKNTLYLQMNSLRAEDTAVYYCATVYCGSWVARSWGQGTLVTVSS |  |
| 4.59 nM | 4.59 nM | 0.00157 s⁻¹ | 341000 M⁻¹ s⁻¹ | hzF2-m7 (VHH, The parent hzF2 is a VHH-human IgG1 Fc fusion; also called humanized single variable domain antibody hzF2-m7) VHH: EVQLVESGGGLVQPGGSLRLSCAASRDSDDSASCMGWFRQAPGKGLEGVAIIFNAGERTDYGDSVKGRFTISRDNAKNTLYLQMNSLRAEDTAVYYCATVWCGSWVARSWGQGTLVTVSS |  |
| 1.54 nM |  |  |  | hzF2-m12 (VHH, Framework 2 is KEREG; also called humanized single variable domain antibody hzF2-m12) VHH: EVQLVESGGGLVQPGGSLRLSCAASRDSDEGASCMGWFRQAPGKEREGVAIIFNVGERTDYGDSVKGRFTISRDNAKNTLYLQMNSLRAEDTAVYYCATVWCGSWVARSWGQGTLVTVSS |  |
| 1.26 nM | 1.26 nM | 0.000709 s⁻¹ | 562000 M⁻¹ s⁻¹ | hzF2-m2 (VHH, The parent hzF2 is a VHH-human IgG1 Fc fusion; also called humanized single variable domain antibody hzF2-m2) VHH: EVQLVESGGGLVQPGGSLRLSCAASGDSDDGASCMGWFRQAPGKGLEGVAIIFNAGERTDYGDSVKGRFTISRDNAKNTLYLQMNSLRAEDTAVYYCATVWCGSWVARSWGQGTLVTVSS |  |
| 7.8 nM | 7.8 nM | 0.00487 s⁻¹ | 624000 M⁻¹ s⁻¹ | hzF2-m3 (VHH, The parent hzF2 is a VHH-human IgG1 Fc fusion; also called humanized single variable domain antibody hzF2-m3) VHH: EVQLVESGGGLVQPGGSLRLSCAASRDSSSGASCMGWFRQAPGKGLEGVAIIFNAGERTDYGDSVKGRFTISRDNAKNTLYLQMNSLRAEDTAVYYCATVWCGSWVARSWGQGTLVTVSS |  |
| 3.81 nM |  |  |  | hzF2-m14 (VHH, Framework 2 is KEREG; also called humanized single variable domain antibody hzF2-m14) VHH: EVQLVESGGGLVQPGGSLRLSCAASRDSDEGASCMGWFRQAPGKEREGVAIIFNVGERTDYGDSVKGRFTISRDNAKNTLYLQMNSLRAEDTAVYYCATVYCGSYVARSWGQGTLVTVSS |  |
| 3.18 nM |  |  |  | hzF2-m16 (VHH, Framework 2 is KEREG; also called humanized single variable domain antibody hzF2-m16) VHH: EVQLVESGGGLVQPGGSLRLSCAASRDSDEGASCMGWFRQAPGKEREGVAIIFNVGERTDYGDSVKGRFTISRDNAKNTLYLQMNSLRAEDTAVYYCATVFCGSFVARSWGQGTLVTVSS |  |
| 4.26 nM |  |  |  | hzF2-m13 (VHH, Framework 2 is KEREG; also called humanized single variable domain antibody hzF2-m13) VHH: EVQLVESGGGLVQPGGSLRLSCAASRDSDDGASCMGWFRQAPGKEREGVAIIFNAGERTDYGDSVKGRFTISRDNAKNTLYLQMNSLRAEDTAVYYCATVFCGSFVARSWGQGTLVTVSS |  |
| 2.8 nM | 2.8 nM | 0.0019 s⁻¹ | 679000 M⁻¹ s⁻¹ | hzF2-m1 (VHH, The parent hzF2 is a VHH-human IgG1 Fc fusion; also called humanized single variable domain antibody hzF2-m1) VHH: EVQLVESGGGLVQPGGSLRLSCAASRDSDDGASSMGWFRQAPGKGLEGVAIIFNAGERTDYGDSVKGRFTISRDNAKNTLYLQMNSLRAEDTAVYYCATVWSGSWVARSWGQGTLVTVSS |  |
| 4.75 nM |  |  |  | hzF2-m15 (VHH, Framework 2 is KEREG; also called humanized single variable domain antibody hzF2-m15) VHH: EVQLVESGGGLVQPGGSLRLSCAASRDSDEGASCMGWFRQAPGKEREGVAIIFNVGERTDYGDSVKGRFTISRDNAKNTLYLQMNSLRAEDTAVYYCATVFCGSYVARSWGQGTLVTVSS |  |
| 1.18 nM | 1.18 nM | 0.000419 s⁻¹ | 356000 M⁻¹ s⁻¹ | hzF2-m8 (VHH, also called humanized single variable domain antibody hzF2-m8) VHH: EVQLVESGGGLVQPGGSLRLSCAASRDSDDGASCMGWFRQAPGKEREGVAIIFNVGERTDYGDSVKGRFTISRDNAKNTLYLQMNSLRAEDTAVYYCATVWCGSWVARSWGQGTLVTVSS |  |
|  |  |  |  | KN035 (fusion protein of the KN035 variable region and Fc) (Fc fusion, Built by the same strategy as chF2; also called Envafolimab; control antibody; not shown: human Fc (IgG1, hFc) from the same expression vector and strategy as chF2) QVQLVESGGGLVQPGGSLRLSCAASGKMSSRRCMAWFRQAPGKERERVAKLLTTSGSTYLADSVKGRFTISRDNSKNTVYLQMNSLRAEDTAVYYCAADSFEDPTCTLVTSSGAFQYWGQGTLVTVSS | IC50 (PD-L1-mFc): 8.1 nM; Kd [3]: 1.32 nM; koff [3]: 0.000281 s⁻¹; kon [3]: 213000 M⁻¹ s⁻¹; Kd [4]: 1.5 nM; koff [4]: 0.00035 s⁻¹; kon [4]: 233000 M⁻¹ s⁻¹; EC50 [5]: 1.27 nM; Reporter Gene Assay (Jurkat-PD1-NFAT cells and CHO-PD-L1-CD3L cells), luciferase RLU, EC50 [6]: 4.9 nM; binding result [7]: no binding (tested: 60 nM) |
